Data as given in patent US20190022241A1 (AbbVie / Abbott, published 2019).

Key:
[1] = target: T1, hSEZ6-ECD-His (human, UniProt Q53EL9 20-925); experiment: SPR, Biacore 2000 (data not shown)
T1 construct: the whole entry is named; also called recombinant SEZ6-His; human recombinant SEZ6-His

[2] = target: T2, SEZ6 Sushi Domain 1 (amino acids 336-395) on yeast (human, UniProt Q53EL9 355-414); experiment: yeast display, flow cytometry;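 further: antibody binding to individual SEZ6 domains displayed on yeast, measured by flow cytometry, antibody at 50 nM purified or hybridoma supernatant diluted 1:2, 90 min on ice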
T2 construct: yeast display

[3] = target: T3, SEZ6 N1 (amino acids 1-70) on yeast (human, UniProt Q53EL9 20-89); experiment: yeast display, flow cytometry;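 further: antibody binding to individual SEZ6 domains displayed on yeast, measured by flow cytometry, antibody at 50 nM purified or hybridoma supernatant diluted 1:2, 90 min on ice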
T3 construct: yeast display
T3 sequence: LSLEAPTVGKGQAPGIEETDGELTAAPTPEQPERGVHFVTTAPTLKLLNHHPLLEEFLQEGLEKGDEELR

[4] = target: T4, human SEZ6L ECD-His (human, UniProt Q9BYH1 29-955); experiment: ELISA on plates coated with SEZ6L protein
T4 construct: whole entry named
T4 sequence: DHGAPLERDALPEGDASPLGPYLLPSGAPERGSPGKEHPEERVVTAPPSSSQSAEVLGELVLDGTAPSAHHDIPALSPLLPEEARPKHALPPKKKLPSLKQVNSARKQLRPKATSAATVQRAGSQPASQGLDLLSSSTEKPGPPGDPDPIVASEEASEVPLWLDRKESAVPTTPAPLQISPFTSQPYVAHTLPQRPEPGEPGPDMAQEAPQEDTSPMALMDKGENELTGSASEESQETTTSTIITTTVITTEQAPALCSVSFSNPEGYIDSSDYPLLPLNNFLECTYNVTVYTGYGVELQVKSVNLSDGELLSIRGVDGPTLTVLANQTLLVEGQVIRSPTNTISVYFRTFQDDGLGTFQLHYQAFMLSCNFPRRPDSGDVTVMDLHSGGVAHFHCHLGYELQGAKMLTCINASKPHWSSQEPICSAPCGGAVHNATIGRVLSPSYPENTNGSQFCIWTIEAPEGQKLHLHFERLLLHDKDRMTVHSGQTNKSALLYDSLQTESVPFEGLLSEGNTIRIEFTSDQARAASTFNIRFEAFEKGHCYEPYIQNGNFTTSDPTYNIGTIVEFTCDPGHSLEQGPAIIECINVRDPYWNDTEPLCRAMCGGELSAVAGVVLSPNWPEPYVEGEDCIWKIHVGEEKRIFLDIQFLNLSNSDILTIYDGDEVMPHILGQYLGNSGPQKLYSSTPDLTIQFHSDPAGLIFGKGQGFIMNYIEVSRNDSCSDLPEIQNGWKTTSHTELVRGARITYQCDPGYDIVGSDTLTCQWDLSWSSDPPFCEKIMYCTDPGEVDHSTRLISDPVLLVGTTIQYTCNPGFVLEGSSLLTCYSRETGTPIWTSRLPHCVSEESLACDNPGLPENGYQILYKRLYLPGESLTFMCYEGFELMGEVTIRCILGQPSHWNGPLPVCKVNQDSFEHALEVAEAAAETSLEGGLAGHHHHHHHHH

[5] = target: T5, human SEZ6L2 ECD-His (human, UniProt Q6UXD5 28-843); experiment: ELISA on plates coated with SEZ6L2 protein
T5 construct: whole entry named
T5 sequence (Q6UXD5 other isoform, or with tags, fused parts or gaps): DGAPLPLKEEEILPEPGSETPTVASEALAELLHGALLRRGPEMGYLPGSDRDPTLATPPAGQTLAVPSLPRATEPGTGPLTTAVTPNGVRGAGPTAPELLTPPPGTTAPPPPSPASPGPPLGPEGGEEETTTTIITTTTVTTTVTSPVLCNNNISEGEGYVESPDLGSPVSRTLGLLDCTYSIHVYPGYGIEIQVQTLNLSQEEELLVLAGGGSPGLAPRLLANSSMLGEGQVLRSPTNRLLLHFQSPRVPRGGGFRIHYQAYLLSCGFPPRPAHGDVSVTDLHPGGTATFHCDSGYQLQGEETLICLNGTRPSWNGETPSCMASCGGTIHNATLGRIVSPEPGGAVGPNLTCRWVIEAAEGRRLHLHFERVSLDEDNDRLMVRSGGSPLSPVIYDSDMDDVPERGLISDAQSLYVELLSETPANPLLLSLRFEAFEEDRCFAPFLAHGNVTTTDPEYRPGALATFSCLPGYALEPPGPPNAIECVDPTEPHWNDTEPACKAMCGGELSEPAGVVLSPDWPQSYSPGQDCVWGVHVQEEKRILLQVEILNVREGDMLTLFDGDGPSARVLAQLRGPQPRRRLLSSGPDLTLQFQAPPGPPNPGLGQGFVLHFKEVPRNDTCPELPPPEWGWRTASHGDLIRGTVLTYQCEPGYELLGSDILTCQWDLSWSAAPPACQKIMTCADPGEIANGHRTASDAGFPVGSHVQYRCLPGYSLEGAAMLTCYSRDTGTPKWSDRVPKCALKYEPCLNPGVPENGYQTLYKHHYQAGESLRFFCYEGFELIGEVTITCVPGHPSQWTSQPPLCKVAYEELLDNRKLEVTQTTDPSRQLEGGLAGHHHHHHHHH

[6] = target: T6, mouse SEZ6 on Neuro2a cells (mouse, UniProt Q7TSK2 20-991); experiment: flow cytometry on Neuro2a cells expressing mouse SEZ6
T6 construct: endogenous on Neuro2a cells; also called murine SEZ6; mSEZ6

[7] = target: T7, rat SEZ6 on RIN-m5F cells (rat, UniProt Q7TSK2 20-991 (mouse entry)); experiment: flow cytometry on RIN-m5F cells expressing rat SEZ6, verified by BLI or SPR on rat SEZ6-His
T7 construct: endogenous on RIN-m5F cells; also called rSEZ6
T7 chain: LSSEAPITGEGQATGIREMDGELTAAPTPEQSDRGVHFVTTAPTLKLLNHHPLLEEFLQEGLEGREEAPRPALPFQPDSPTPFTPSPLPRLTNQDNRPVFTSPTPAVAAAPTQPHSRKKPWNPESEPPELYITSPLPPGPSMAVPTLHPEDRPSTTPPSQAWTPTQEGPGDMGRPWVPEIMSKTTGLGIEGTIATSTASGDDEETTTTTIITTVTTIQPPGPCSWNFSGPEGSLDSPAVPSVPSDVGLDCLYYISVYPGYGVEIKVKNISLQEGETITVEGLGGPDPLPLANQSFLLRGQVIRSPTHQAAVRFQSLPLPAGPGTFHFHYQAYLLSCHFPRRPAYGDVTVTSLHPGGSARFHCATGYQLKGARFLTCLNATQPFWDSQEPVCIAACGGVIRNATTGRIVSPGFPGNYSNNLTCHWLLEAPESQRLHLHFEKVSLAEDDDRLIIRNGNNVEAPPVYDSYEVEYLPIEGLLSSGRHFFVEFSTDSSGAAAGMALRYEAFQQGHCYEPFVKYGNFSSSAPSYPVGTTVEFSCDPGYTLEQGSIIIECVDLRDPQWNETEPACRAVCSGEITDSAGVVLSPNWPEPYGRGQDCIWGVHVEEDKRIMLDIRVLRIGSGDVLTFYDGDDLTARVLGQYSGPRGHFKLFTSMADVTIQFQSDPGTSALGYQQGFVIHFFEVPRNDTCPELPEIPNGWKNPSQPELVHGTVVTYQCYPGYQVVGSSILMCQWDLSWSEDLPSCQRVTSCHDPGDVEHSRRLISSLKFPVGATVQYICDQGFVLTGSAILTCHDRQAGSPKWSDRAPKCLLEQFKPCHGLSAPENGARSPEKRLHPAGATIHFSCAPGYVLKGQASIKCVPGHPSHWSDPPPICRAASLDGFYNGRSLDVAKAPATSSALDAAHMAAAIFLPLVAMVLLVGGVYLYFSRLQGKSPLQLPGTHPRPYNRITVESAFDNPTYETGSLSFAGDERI

[8] = target: T1, hSEZ6-ECD-His; experiment: bio-layer interferometry (ForteBio RED) or surface plasmon resonance (Biacore 2000) on human SEZ6-His; the table does not say which; column Hu Affinity (Kd, nM)

B1: hSC17.16 (antibody, human IgG1, V domains shown)
VH: QVQLVQSGAEVKKPGASVKVSCKASGYTFTDYNMYWVRQAPGQGLEWMGEINPNNGGTAYNQKFRGKVTMTRDTSISTAYMELSRLRSDDTAVYYCARYDKGFDYWGQGTTVTVSS
VL: DIQMTQSPSSLSASVGDRVTITCRASANINSNLVWYQQKPGKAPKLLIYAATNLADGVPSRFSGSGSGTDFTLTISSLQPEDFATYYCQHFWGTPRTFGGGTKLEIK
notes: humanized; human IgG1 heavy and human kappa light constant regions
binding result [1]: binds

B2: SC17.187 (antibody, V domains shown)
VH: EVHLQQSGPELVNPGSSVKISCKAAGYTFTDYNMDWVKQSHGKRLEWIGNIYPNNGGAGYNQNFKDKATLTVDKSSSTAYMELRSLTSEDSAVYYCARSITAAWFAYWGQGTLVTVSA
VL: DIKMTQSPSSMYASLGERVTLTCKASQDINSYLSWFQQKPGKSPETLIYRANRLIDGVPSRFSGSGSGQDYSLTISSLEYEDMGIYYCLQYDEFPPTFGGGTKLEIK
notes: murine mAb
binding result [2]: binds

B3: SC17.4 (antibody, V domains shown)
VH: QIQLVQSGPELKKPGETVKISCKASGYTFTDYSMHWVKQAPGKGLKWLGWINTETGEPTYSEDFKGRFAFSLETSASTAYLQINNLKNEDTATYFCVKNKGWFAYWGQGTLVTVSA
VL: DIKMTQSPSSMYASLGERVTITCKASQDINSYLTWFQQKPGKSPKTLIYRANRLIDGVPSRFSGSGSGQDYSLTISSLDYEDMGIYYCLQYDDFPWTFGGGTKLEIK
notes: murine mAb
binding result [3]: binds | binding result [4]: no binding (tested: 1 µg/mL) | binding result [5]: no binding (tested: 1 µg/mL) | binding result [6]: no binding (tested: 5 µg/mL) | binding result [7]: no binding (tested: 5 µg/mL)

B4: hSC17.28 (antibody, human IgG1, V domains shown)
VH: QVQLVQSGAEVKKPGASVKVSCKASGYTFTRSYIHWVRQAPGQGLEWMGYISSGSGGTTYNQKFKGRVTSTRDTSISTAYMELSRLRSDDTAVYYCARGGVRYFDVWGQGTTVTVSS
VL: EIVLTQSPDFQSVTPKEKVTITCRASQSIGTSIHWYQQKPDQSPKLLIKYASESISGVPSRFSGSGSGTDFTLTINSLEAEDAATYYCQQSNSWPLTFGQGTKLEIK
notes: humanized, human IgG1/kappa
binding result [1]: binds

B5: hSC17.34 (antibody, human IgG1, V domains shown)
VH: QVQLVQSGAEVKKPGASVKVSCKASGYTFTDYNMDWVRQAPGQRLEWIGYIYPDNGGAGYNQKFKGRVTITVDTSASTAYMELSSLRSEDTAVYYCSRSITTAWFAYWGQGTLVTVSS
VL: DIQMTQSPSSLSASVGDRVTITCKASQDINSYLSWFQQKPGKAPKSLIYRANRLVDGVPSRFSGSGSGTDYTLTISSLQPEDFATYYCLQYDEFPPTFGQGTKLEIK
notes: humanized, human IgG1/kappa
binding result [1]: binds

B6: SC17.49 (antibody, V domains shown)
VH: QVQLQQSGAELVRPGASVTLSCKASGYTFTDYEMHWVKQTPVHGLEWIGGIDPETGGTAYNQKFKGKATLTADKSSSTAYMELRSLTSEDSAVYFCTRWFSYWGPGTLVTVSA
VL: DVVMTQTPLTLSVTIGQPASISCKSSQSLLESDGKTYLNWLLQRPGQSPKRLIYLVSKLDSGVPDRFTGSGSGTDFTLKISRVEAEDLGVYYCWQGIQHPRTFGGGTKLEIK
notes: murine mAb
binding result [4]: no binding (tested: 1 µg/mL) | binding result [5]: no binding (tested: 1 µg/mL) | binding result [6]: no binding (tested: 5 µg/mL) | binding result [7]: no binding (tested: 5 µg/mL) | Kd [8]: 23.1 nM

B7: SC17.82 (antibody, V domains shown)
VH: EVQLQQSGPELVKPGASVKMSCKASGYTFTDSYMNWVKQSHGKSLEWIGRVNPNNGGASYNHKFKGKATLTVDKSLSTAYMRLNSLTSEDSAVYYCSRSGDLYYYAMDYWGQGTSVTVSS
VL: QIVLTQSPAIMSASLGEEITLTCSASSSVSYMHWYQQKSGTSPKLLIYSTSNLASGVPSRFSGSGSGTFYSLTISSVEAEDAADYYCHQWSSFTFGSGTKLEIK
notes: murine mAb
binding result [2]: binds

B8: SC17.45 (antibody, V domains shown)
VH: QVQLQQPGSVLVRPGDSVKLSCKASGYTFTSYWMHWVKQSPGQGLEWIGEIHPHSGSTNYNEKFKGKATLTVDTSSSTAYVDLSSLTSEDSAVYYCVGGHYDYWGQGTTLTVSS
VL: ENVLTQSPAIMSASPGEKVTMTCSASSSVNYMYWYQQKSSTSPKLWIYDTSKLTSGVPGRFSGSGSGNSYSLTISNMEAEDVATYYCFQGSGYPLTFGSGTKLEIK
notes: murine mAb
binding result [4]: no binding (tested: 1 µg/mL) | binding result [5]: no binding (tested: 1 µg/mL) | binding result [6]: no binding (tested: 5 µg/mL) | binding result [7]: no binding (tested: 5 µg/mL) | Kd [8]: 17.4 nM

B9: SC17.200 (antibody, V domains shown)
VH: QVQLQQSGPELVKPGASVKISCKASGYAFSSSWINWVKQRPGQGLEWIGRIYPGEGDTNYSGNFEGKATLTADKSSTTAYMQLSSLTSVDSAVYFCTRGLVMDYWGQGTALTVSS
VL: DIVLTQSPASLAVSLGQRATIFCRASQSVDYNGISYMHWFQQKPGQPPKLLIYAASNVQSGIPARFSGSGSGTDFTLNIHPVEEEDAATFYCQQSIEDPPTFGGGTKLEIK
notes: murine mAb
binding result [2]: binds

B10: hSC17.17 (antibody, human IgG1, V domains shown)
VH: QVQLVQSGAEVKKPGASVKVSCKASGYTFTDYNMHWVRQAPGQGLEWMGEINPNIGGTGYNQKFKGRVTMTRDTSISTAYMELSRLRSDDTAVYYCARTYSYYSYEFAYWGQGTLVTVSS
VL: EIVLTQSPATLSLSPGERATLSCSASSSVSYMHWYQQKPGQAPRLLIYDTSKLPSGIPARFSGSGSGTDFTLTISSLEPEDFAVYYCQQWSSTPPTFGQGTKLEIK
notes: humanized, human IgG1/kappa
binding result [1]: binds

B11: SC17.87 (antibody, V domains shown)
VH: EVQLQQSGAELLKPGASVKLSCTASGLNIKDYYIHWVYQRPEQGLEWIGRIDPESDNTLYDPKFQGKASITADTSSNTAYLQLSSLTSEDTAVYYCTTNTPFAYWGQGTLVTVST
VL: DVVMTQTPLSLPVSLGDQASISCRSSQSLVHSNGNTYLHWYLQKPGQSPKLLISKVSNRFSGVPDRFSGSGSGTDFTLKISRVEAEDLGVYFCSQSTHVPPMFGGGTRLEIK
notes: murine mAb
binding result [2]: binds

B12: SC17.97 (antibody, V domains shown)
VH: QVQLPQSGAELAKPGASVKISCKASGFTFTSYWMHWVKQRPGQGLEWIGYINPSTDYTEYNQKFKDKATLTADKSSSTAYMQLGSLTSEDSAVYYCARSSYGSSPFDYWGQGSTLTVSS
VL: DVVMTQTPLSLPVSLGDQASISCRSSQSLVHNNGNTYLHWYLQKPGQSPNLLIYKVSNRFSGVPDRFSGSGSGTDFTLKISIVEAEDLGLYFCSQSTHVPRTFGGGTKLEIK
notes: murine mAb
binding result [2]: binds
